In the supplement of paper PMC7877785:
± gives the uncertainty stated by the source.

Assay: self-splicing fitness, log relative to wild type (ln ratio); higher = more splicing; Tetrahymena group I intron in knt gene, E. coli kanamycin selection, DiMSum; sequences stand for … in CUCUCU…GGAGGGAAAAGUUAUCAGGCAUGCACCUGGUAGCUAGUCUUUAAACCAAUAGAUUGCAUCGGUUUAAAAGGCAAGACCGUCAAAUUGCGGGAAAGGGGUCAACAGCCGUUCAGUACCAAGUCUCAGGGGAAACUUUGAGAUGGCCUUGCAAAGGGUAUGGUAAUAAGCUGACGGACAUGGUCCUAACCACGCAGCCAAGUCCUAAGUCAACAGAUCUUCUGUUGAUAUGGAUGCAGUUCACAGACUAAAUGUCGGUCGGGGAAGAUGUAUUCUUCUCAUAAGAUAUAGUCGGACCUCUCCUUAAUGGGAGCUAGCGGAUGAAGUGAUGCAACACUGGAGCCGCUGGGAACUAAUUUGUAUGCGAAAGUAUAUUGAUUAGUUUUGGAGUACUCGUGGUCG
In short: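 A randomised library covering all eight P1ex-region intron nucleotides was built with the intron in the knt kanamycin-resistance gene on pET-22b(+) and held in E. coli BL21(DE3). Cells were grown overnight at 37°C or 30°C on LB agar, with or without 25 μg/mL kanamycin, plus 100 μg/mL carbenicillin, 50 μM IPTG and 0.2% rhamnose, and pooled colonies were amplicon-sequenced on an Illumina HiSeq 2500. DiMSum fitness is the error-weighted combination of wild-type-normalised replicate fold changes, kanamycin versus none.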

| Sequence | self-splicing fitness (ln) (30 °C) | self-splicing fitness (ln) (37 °C) |
| --- | --- | --- |
| UUGUAGCAAUAUUACGUAUA | -2.1 ± 0.17 | -0.709 ± 0.15 |
| UUGUAGCAAUAUUACGUGAG | -0.904 ± 0.076 | -0.739 ± 0.11 |
| UUGUAGCAAUAUUACGUGGU | -3.35 ± 0.3 | -3.67 ± 0.42 |
| UUGUAGCAAUAUUACGUUAC |  | -1.65 ± 0.43 |
| UUUAAGCAAUAUUACGAACC |  | 0.0298 ± 0.37 |
| UUUAAGCAAUAUUACGAGGU | -3.65 ± 0.22 | -2.04 ± 0.15 |
| UUUAAGCAAUAUUACGAUUC | -2.23 ± 0.23 | -0.889 ± 0.19 |
| UUUAAGCAAUAUUACGCAAG | -1.43 ± 0.2 | -0.275 ± 0.18 |
| UUUAAGCAAUAUUACGCAGU | -2.7 ± 0.22 | -2.36 ± 0.27 |
| UUUAAGCAAUAUUACGCGCC | -1.12 ± 0.18 | -1.4 ± 0.26 |
| UUUAAGCAAUAUUACGCUAC | -3.5 ± 0.32 |  |
| UUUAAGCAAUAUUACGGCAC | -2 ± 0.27 | -1.87 ± 0.23 |
| UUUAAGCAAUAUUACGGCCA | -0.688 ± 0.11 | -0.335 ± 0.15 |
| UUUAAGCAAUAUUACGGGCC |  | -2.57 ± 0.49 |
| UUUAAGCAAUAUUACGGUCA | -1.15 ± 0.12 | -0.266 ± 0.1 |
| UUUAAGCAAUAUUACGUAUU | -2.16 ± 0.18 | -0.782 ± 0.21 |
| UUUAAGCAAUAUUACGUCAU | -3.03 ± 0.22 | -1.08 ± 0.15 |
| UUUAAGCAAUAUUACGUGAG | -0.404 ± 0.067 | -0.0655 ± 0.094 |
| UUUAAGCAAUAUUACGUGGC | -3.77 ± 0.23 | -3.57 ± 0.29 |
| UUUAAGCAAUAUUACGUUGG | -1.45 ± 0.1 | -1.67 ± 0.17 |
| UUUCAGCAAUAUUACGAAGU | -1.82 ± 0.22 | 0.335 ± 0.25 |
| UUUCAGCAAUAUUACGACAA | -0.0726 ± 0.12 | -0.913 ± 0.14 |
| UUUCAGCAAUAUUACGACCA | -0.495 ± 0.19 | -1.36 ± 0.23 |
| UUUCAGCAAUAUUACGACGU | -1.71 ± 0.17 | -0.698 ± 0.18 |
| UUUCAGCAAUAUUACGACUA | 0.605 ± 0.12 | 0.612 ± 0.12 |
| UUUCAGCAAUAUUACGAGUA | -1.3 ± 0.11 | -0.691 ± 0.1 |
| UUUCAGCAAUAUUACGAUAU | -1.88 ± 0.15 | -0.0425 ± 0.12 |

| Sequence | self-splicing fitness (ln) (30 °C) | self-splicing fitness (ln) (37 °C) |
| --- | --- | --- |
| UUUCAGCAAUAUUACGCAAG | -1.27 ± 0.11 | -0.106 ± 0.13 |
| UUUCAGCAAUAUUACGCCGU | -3.39 ± 0.36 | -1.45 ± 0.26 |
| UUUCAGCAAUAUUACGCGAG | -1.16 ± 0.14 | 0.301 ± 0.15 |
| UUUCAGCAAUAUUACGGAGU | -2.8 ± 0.28 | -1.64 ± 0.38 |
| UUUCAGCAAUAUUACGGCAU | -1.87 ± 0.16 | -1.08 ± 0.19 |
| UUUCAGCAAUAUUACGGGAC | -2.81 ± 0.21 | -1.4 ± 0.19 |
| UUUCAGCAAUAUUACGGGGG | -2.22 ± 0.15 | -1.45 ± 0.16 |
| UUUCAGCAAUAUUACGGGUG | -0.316 ± 0.074 | -0.441 ± 0.087 |
| UUUCAGCAAUAUUACGGUCG | -0.269 ± 0.074 | 0.418 ± 0.11 |
| UUUCAGCAAUAUUACGGUGC | -3.27 ± 0.21 | -3.4 ± 0.39 |
| UUUCAGCAAUAUUACGGUUA | 0.116 ± 0.071 | 0.454 ± 0.077 |
| UUUCAGCAAUAUUACGUAGU | -3.95 ± 0.24 | -2.63 ± 0.18 |
| UUUCAGCAAUAUUACGUAUA | -0.408 ± 0.21 | -0.0411 ± 0.25 |
| UUUCAGCAAUAUUACGUCCA | -0.967 ± 0.14 | 0.0389 ± 0.16 |
| UUUCAGCAAUAUUACGUCGU | -3.77 ± 0.17 | -1.93 ± 0.11 |
| UUUCAGCAAUAUUACGUCUG | -3.65 ± 0.22 | -1.87 ± 0.16 |
| UUUCAGCAAUAUUACGUUAA | -1.45 ± 0.077 | -1.09 ± 0.076 |
| UUUGAGCAAUAUUACGAAAU | -3.72 ± 0.2 | -2.09 ± 0.17 |
| UUUGAGCAAUAUUACGAAGC | -3.58 ± 0.42 | -1.64 ± 0.33 |
| UUUGAGCAAUAUUACGAAUG | -3.15 ± 0.25 | -0.965 ± 0.29 |
| UUUGAGCAAUAUUACGACUG | -2.39 ± 0.36 | -1.03 ± 0.39 |
| UUUGAGCAAUAUUACGAGGG | -3.32 ± 0.32 | -0.691 ± 0.24 |
| UUUGAGCAAUAUUACGCAAU | -3.33 ± 0.48 | -1.5 ± 0.46 |
| UUUGAGCAAUAUUACGCGAG | -1.42 ± 0.15 | -0.997 ± 0.2 |
| UUUGAGCAAUAUUACGCGGG | -2.66 ± 0.24 | -1.45 ± 0.21 |
| UUUGAGCAAUAUUACGCUAU | -3.79 ± 0.42 | -2.26 ± 0.23 |
| UUUGAGCAAUAUUACGGAGC | -2.02 ± 0.49 |  |

| Sequence | self-splicing fitness (ln) (30 °C) | self-splicing fitness (ln) (37 °C) |
| --- | --- | --- |
| UUUGAGCAAUAUUACGGAGU | -2.49 ± 0.28 |  |
| UUUGAGCAAUAUUACGGCUA | -0.914 ± 0.23 | -1.2 ± 0.21 |
| UUUGAGCAAUAUUACGGUUC | -3.67 ± 0.37 | -3.69 ± 0.46 |
| UUUGAGCAAUAUUACGUGGA | -2.53 ± 0.21 | -2.37 ± 0.22 |
| UUUGAGCAAUAUUACGUUAG |  | -1.73 ± 0.35 |
| UUUGAGCAAUAUUACGUUAU | -3.92 ± 0.21 | -1.9 ± 0.16 |
| UUUUAGCAAUAUUACGACAG | -0.158 ± 0.23 | 0.172 ± 0.27 |
| UUUUAGCAAUAUUACGCAAA | -1.98 ± 0.49 | -1.47 ± 0.36 |
| UUUUAGCAAUAUUACGCGUU | -2.55 ± 0.18 | -2.61 ± 0.19 |
| UUUUAGCAAUAUUACGCUCG | -0.861 ± 0.14 | -0.128 ± 0.16 |
| UUUUAGCAAUAUUACGCUCU | -0.0349 ± 0.23 | -0.135 ± 0.18 |
| UUUUAGCAAUAUUACGCUGU | -3.26 ± 0.34 | -1.98 ± 0.33 |
| UUUUAGCAAUAUUACGGCAC |  | -0.642 ± 0.28 |
| UUUUAGCAAUAUUACGGCAG | -0.809 ± 0.11 | -0.727 ± 0.15 |
| UUUUAGCAAUAUUACGGCGA | -0.835 ± 0.17 | 0.114 ± 0.18 |
| UUUUAGCAAUAUUACGGCUA | -2.21 ± 0.44 | -0.365 ± 0.31 |
| UUUUAGCAAUAUUACGGGAC | -2.5 ± 0.26 | -1.83 ± 0.47 |
| UUUUAGCAAUAUUACGGGAG | -0.728 ± 0.16 | -1.79 ± 0.29 |
| UUUUAGCAAUAUUACGGGCA | -1.86 ± 0.39 | -0.575 ± 0.27 |
| UUUUAGCAAUAUUACGGUAU | -2.87 ± 0.32 | -3.11 ± 0.47 |
| UUUUAGCAAUAUUACGUAAG | -0.681 ± 0.13 | -0.523 ± 0.14 |
| UUUUAGCAAUAUUACGUACG | -2.14 ± 0.37 | -0.297 ± 0.33 |
| UUUUAGCAAUAUUACGUCGA | -0.866 ± 0.12 | 0.0877 ± 0.14 |
| UUUUAGCAAUAUUACGUUCG | -0.683 ± 0.11 | -1.34 ± 0.12 |
| UUUUAGCAAUAUUACGUUCU | -3.48 ± 0.37 | -1.17 ± 0.17 |
